Laboratory results: US20050100540A1, “Platelet-activating factor acetylhydrolase” (priority 1993, published 2005)

Test system: OVA-induced eosinophil infiltration of the trachea
Assay: Antigen-induced eosinophil recruitment to trachea
Assay type: in vivo, mouse
Conditions: 750 units IV before and 24 h after aerosolized OVA (group 4)
Experimental: Recombinant PAF-AH enzyme of the invention was also tested for efficacy in a model of antigen-induced eosinophil recruitment. The accumulation of eosinophils in the airway is a characteristic feature of late phase immune responses which occur in asthma, rhinitis and eczema. BALB/c mice (Charles River) were sensitized by two intraperitoneal injections consisting of 1 μg of ovalbumin (OVA) in 4 mg of aluminum hydroxide (Imject alum, Pierce Laboratories, Rockford. Ill.) given at a 2 week interval. Fourteen days following the second immunization, the sensitized mice were challenged with either aerosolized OVA or saline as a control.
Prior to challenge mice were randomly placed into four groups, with four mice/group. […] Mice in groups 2 and 4 were pretreated with 750 units of PAF-AH (activity of 5,500 units/ml given in 140 μl of PAF-AH buffer). Thirty minutes following administration of PAF-AH or buffer, mice in groups 1 and 2 were exposed to aerosolized PBS as described below, while mice in groups 3 and 4 were exposed to aerosolized OVA. Twenty-four hours later mice were treated a second time with either 140 μl of buffer (groups 1 and 3) or 750 units of PAF-AH in 140 μl of buffer (groups 2 and 4) given by intravenous injection.
Eosinophil infiltration of the trachea was induced in the sensitized mice by exposing the animals to aerosolized OVA. […]

B1: PAF-AH: Recombinant human plasma platelet-activating factor acetylhydrolase (beginning at Ile42) expressed in E. coli from construct pUC trp AH (protein)
chain: IQVLMAAASFGQTKIPRGNGPYSVGCTDLMFDHTNKGTFLRLYYPSQDNDRLDTLWIPNKEYFWGLSKFLGTHWLMGNILRLLFGSMTTPANWNSPLRPGEKYPLVVFSHGLGAFRTLYSAIGIDLASHGFIVAAVEHRDRSASATYYFKDQSAAEIGDKSWLYLRTLKQEEETHIRNEQVRQRAKECSQALSLILDIDHGKPVKNALDLKFDMEQLKDSIDREKIAVIGHSFGGATVIQTLSEDQRFRCGIALDAWMFPLGDEVYSRIPQPLFFINSEYFQYPANIIKMKKCYSPDKERKMITIRGSVHQNFADFTFATGKIIGHMLKLKGDIDSNVAIDLSNKASLAFLQKHLGLHKDFDQWDCLIEGDDENLIPGTNINTTNQHIMLQNSSGIEKYN
  Eosinophils in the submucosal tissue of the trachea: very few eosinophils in the submucosal tissue
